The text below walks through data of US20140017168A1.

Experiment [1] deals with gastrin-releasing peptide receptor on PC-3 cells (UniProt P30550). The experiment in a line: competition with 125I-BBN on PC-3 cells, inhibitor 250 to 2 nM.
Experiment [2] deals with receptor for bombesin analogues (target not named where the EC50 values are printed) (UniProt P30550). Description: assay and target not described at this place.
The target of experiment [3] is somatostatin receptors on AR42J cells (rat). The experiment in a line: apparent IC50, competition with 111In(DTPA-octreotide) on AR42J cells, 3 h at RT.
Chain of somatostatin receptors on AR42J cells (rat) (P30680 whole entry): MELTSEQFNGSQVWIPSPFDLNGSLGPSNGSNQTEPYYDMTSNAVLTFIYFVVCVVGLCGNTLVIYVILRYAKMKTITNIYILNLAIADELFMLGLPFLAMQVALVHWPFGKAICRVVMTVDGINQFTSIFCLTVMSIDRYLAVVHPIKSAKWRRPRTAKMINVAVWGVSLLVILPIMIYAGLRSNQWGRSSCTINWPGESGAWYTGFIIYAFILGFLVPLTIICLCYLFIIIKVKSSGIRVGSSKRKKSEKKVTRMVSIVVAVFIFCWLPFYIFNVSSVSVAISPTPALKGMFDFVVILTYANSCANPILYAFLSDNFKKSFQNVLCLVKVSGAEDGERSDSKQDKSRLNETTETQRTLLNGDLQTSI

Chain of gastrin-releasing peptide receptor on PC-3 cells (P30550 whole entry): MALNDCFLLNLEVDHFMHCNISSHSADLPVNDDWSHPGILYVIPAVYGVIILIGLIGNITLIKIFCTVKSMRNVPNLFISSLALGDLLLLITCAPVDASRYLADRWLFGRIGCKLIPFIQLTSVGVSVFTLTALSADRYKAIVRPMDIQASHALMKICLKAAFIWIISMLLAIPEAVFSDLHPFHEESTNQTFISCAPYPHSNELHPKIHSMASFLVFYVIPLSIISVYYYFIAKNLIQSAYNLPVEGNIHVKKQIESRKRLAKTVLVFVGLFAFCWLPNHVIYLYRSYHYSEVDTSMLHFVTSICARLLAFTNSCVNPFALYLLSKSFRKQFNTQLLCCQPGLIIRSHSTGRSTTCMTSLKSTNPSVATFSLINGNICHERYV
Chain of receptor for bombesin analogues (target not named where the EC50 values are printed) (P30550 whole entry): as above

The substance “commercially available BBN peptide (BBN positive control)” displayed an IC50 in experiment [1] of 24.4 nM.
Consider ^125I-Bombesin (Perkin-Elmer) (peptide), for which the EC50 in experiment [2] was 59 nM.
Turning to “Al^19F(IMP466), IMP466 = NOTA-D-Phe-Cys-Phe-D-Trp-Lys-Thr-Cys-Throl (peptide)”, the concentration for half-maximal inhibition (IC50) in experiment [3] amounted to 3.6 nM.
As to “^69Ga(IMP466), IMP466 = NOTA-D-Phe-Cys-Phe-D-Trp-Lys-Thr-Cys-Throl (peptide)”, the IC50 in experiment [3] turned out to be 13 nM.
In the case of ^115In(DTPA-octreotide) (peptide), the IC50 in experiment [3] stood at 6.3 nM.

Usually IC50 stands for the concentration that gives 50% inhibition. For orientation: EC50 means the concentration at which the effect is half-maximal. A higher EC50 goes with a less potent agent.
